# Results reported in the Human Domainome abundance scans (Beltran et al. 2025).
# ± gives the uncertainty stated by the source.
# B1: Intersectin-2, residues 1129 to 1183; numbered along this chain, Q9NZM3 (parent)
# chain: VCQVIAMYDYAANNEDELSFSKGQLINVMNKDDPDWWQGEINGVTGLFPSNYVKM
# B2: Homeobox protein SIX6, residues 134 to 184; numbered along this chain, O95475 (parent)
# chain: CFKERTRHLLREWYLQDPYPNPSKKRELAQATGLTPTQVGNWFKNRRQRDR
# Variants of: B1
# Assay: abundance fitness (aPCA) (normalised: wild type 0, dead -1); higher = more abundant; growth selection in yeast, the domain comes from the species named
# Conditions: Homo sapiens
row,Variant,abundance fitness
1,M7Q,-0.049 ± 0.053
2,M7Y,-0.036 ± 0.052
3,M7V,-0.065 ± 0.045
4,M7C,-0.02 ± 0.055
5,M7E,-0.057 ± 0.053
6,M7P,-0.897 ± 0.088
7,M7I,0.002 ± 0.041
8,M7A,-0.078 ± 0.038
9,M7N,-0.088 ± 0.067
10,M7S,0.029 ± 0.032
11,M7F,-0.168 ± 0.072
12,M7R,-0.115 ± 0.039
13,M7W,-0.188 ± 0.043
14,M7G,-0.081 ± 0.028
15,M7K,-0.139 ± 0.06
16,Y10K,-0.144 ± 0.04

row,Variant,abundance fitness
1,Y10A,-0.66 ± 0.058
2,Y10N,-0.249 ± 0.051
3,Y10T,-0.865 ± 0.08
4,Y10H,-0.124 ± 0.078
5,Y10Q,-0.505 ± 0.068
6,Y10F,-0.084 ± 0.066
7,Y10R,-0.063 ± 0.032
8,Y10G,-0.761 ± 0.044
9,Y10M,-0.256 ± 0.039
10,Y10E,-0.853 ± 0.1
11,Y10I,-0.494 ± 0.069
12,Y10W,-0.037 ± 0.037
13,Y10P,-0.913 ± 0.14
14,Y10S,-0.427 ± 0.035
15,Y10V,-0.455 ± 0.036
16,Y10D,-0.777 ± 0.11

# Variants of: B2
# Assay: as above
# Conditions: Homo sapiens
row,Variant,abundance fitness
1,T35S,-0.128 ± 0.043
2,T35D,-0.663 ± 0.13
3,T35Y,-0.953 ± 0.079
4,G33M,-0.555 ± 0.11
5,L10Q,-0.613 ± 0.14
6,L15V,0.037 ± 0.05
7,E4Y,-0.012 ± 0.17
8,P18E,-0.769 ± 0.2
9,F2E,0.102 ± 0.094
10,F2V,-0.255 ± 0.063
11,Q38V,-0.87 ± 0.084
12,Q38G,-0.728 ± 0.059
13,Q38M,-0.442 ± 0.094
14,Q38Y,-0.77 ± 0.3
15,K3Q,-0.402 ± 0.13
16,K3I,-0.17 ± 0.21
17,K3G,-0.358 ± 0.083
18,K3Y,-0.672 ± 0.25
19,K3V,-0.562 ± 0.098
20,K3C,-0.06 ± 0.086
21,D17H,-0.812 ± 0.064
22,D17L,-0.794 ± 0.063
23,D17M,-0.849 ± 0.1

row,Variant,abundance fitness
1,T32D,-0.719 ± 0.18
2,T32G,-0.863 ± 0.069
3,T32I,-0.606 ± 0.066
4,R26E,0.037 ± 0.13
5,R26Q,0.264 ± 0.18
6,R26K,-0.024 ± 0.082
7,R26V,0.055 ± 0.048
8,R26W,-0.475 ± 0.16
9,V39G,-0.976 ± 0.11
10,V39S,-0.934 ± 0.18
11,T37W,-0.545 ± 0.093
12,T37L,-0.197 ± 0.068
13,R7F,-0.221 ± 0.099
14,S23A,0.012 ± 0.077
15,R5G,0.082 ± 0.094
16,R5L,-0.175 ± 0.07
17,R5P,-0.355 ± 0.19
18,W42F,-0.649 ± 0.49
19,W42A,-1.05 ± 0.23
20,Q30P,-0.893 ± 0.19
21,K24Y,-0.714 ± 0.069
22,K24D,-0.197 ± 0.068
23,K24T,-0.058 ± 0.048

row,Variant,abundance fitness
1,K24Q,0.074 ± 0.054
2,N45G,-0.481 ± 0.054
3,N45I,-0.394 ± 0.062
4,N45A,-0.378 ± 0.077
5,Q16C,-0.495 ± 0.29
6,Q16L,0.421 ± 0.12
7,R47C,-0.662 ± 0.27
8,R47S,-0.845 ± 0.14
9,D50L,-1.1 ± 0.24
10,D50N,-0.693 ± 0.24
11,W13D,-0.765 ± 0.074
12,W13R,-0.608 ± 0.05
13,W13F,-0.251 ± 0.13
14,W13M,-0.121 ± 0.076
15,W13N,0.24 ± 0.12
16,W13L,-0.259 ± 0.045
17,K25P,-0.648 ± 0.072
18,K25M,-0.126 ± 0.079
19,R49Q,0.143 ± 0.091
20,R49A,-0.278 ± 0.092
21,R49E,0.049 ± 0.07
22,Q48A,-0.315 ± 0.1
23,Q48F,-0.526 ± 0.13

row,Variant,abundance fitness
1,Q48T,-0.411 ± 0.096
2,Q48I,-0.035 ± 0.17
3,N21E,-0.129 ± 0.2
4,N21I,-0.672 ± 0.47
5,N21Y,-0.725 ± 0.33
6,N21C,-0.079 ± 0.073
7,N21Q,-0.105 ± 0.076
8,L28E,-0.808 ± 0.15
9,K44P,-0.957 ± 0.24
10,K44M,-0.204 ± 0.09
11,K44W,-0.634 ± 0.091
12,K44L,-0.525 ± 0.056
13,K44Y,-0.604 ± 0.25
14,K44T,-0.398 ± 0.079
15,T6A,-0.036 ± 0.067
16,T6G,-0.24 ± 0.047
17,T6I,0.36 ± 0.071
18,E27Q,-0.758 ± 0.39
19,E27C,-0.441 ± 0.24
20,E27R,-0.437 ± 0.061
21,E27M,-0.696 ± 0.17
22,G40T,-0.175 ± 0.12
23,G40P,-0.783 ± 0.18

row,Variant,abundance fitness
1,G40H,-0.159 ± 0.062
2,G40M,-0.533 ± 0.24
3,G40N,-0.579 ± 0.21
4,G40L,-0.615 ± 0.074
5,G40D,-0.503 ± 0.25
6,Y14W,-0.847 ± 0.19
7,Y14I,-0.64 ± 0.095
8,Y14A,-0.987 ± 0.12
9,Y14E,-0.788 ± 0.14
10,Y14L,-0.634 ± 0.062
11,Y14D,-0.882 ± 0.086
12,A31I,0.253 ± 0.12
13,A31K,-0.364 ± 0.14
14,A31H,-0.514 ± 0.14
15,L9Y,-0.283 ± 0.053
16,F43D,-0.775 ± 0.14
17,F43H,-0.858 ± 0.31
18,R46C,-0.203 ± 0.062
19,R46L,-0.604 ± 0.067
20,R46D,-0.728 ± 0.21
21,R46M,-0.344 ± 0.1
22,P22F,-0.241 ± 0.1
23,P22Y,-0.424 ± 0.38

row,Variant,abundance fitness
1,P22R,-0.634 ± 0.081
2,P22E,0.104 ± 0.088
3,P22L,0.161 ± 0.076
4,P22H,-0.467 ± 0.11
5,P22T,-0.076 ± 0.14
6,A29L,-0.917 ± 0.068
7,A29T,-1.07 ± 0.23
8,P20C,-0.7 ± 0.34
9,P20G,-0.887 ± 0.11
10,P36A,-0.225 ± 0.052
11,P36S,-0.177 ± 0.045
12,P36C,-0.527 ± 0.11
13,L34T,-0.669 ± 0.082
14,L34I,-0.638 ± 0.072
15,L34S,-0.707 ± 0.054
16,L34R,-0.719 ± 0.078
17,E12N,-0.428 ± 0.19
18,E12S,-0.362 ± 0.093
19,E12I,-0.271 ± 0.091
20,E12A,-0.427 ± 0.055
